Results reported in US20220042033A1, “COMPOSITION AND METHOD FOR CONFERRING AND/OR ENHANCING TOLERANCE AGAINST HERBICIDES BY USING VARIANTS OF PPO” (FarmHannong Co., Ltd., priority 2017, published 2022).
Substitutions are numbered along the chain they refer to. Names and notes keep the numbering of the source.

B1: F209A: ApPPO1 (SEQ ID NO: 1) variant (protein)
chain: MPFTHLKPLNRLLGSPRARHPHVAPQAVSVTNTSTTRPGGRSSAPGIPGDAEYDVVIVGAGISGLTTAQALAKQYSDAVPRLLVTEARDCVGGNIITRRDGGYQWEEGPNSFQPSDAVLRAAVDAGVADRLVLGDPKAPRYVYWGGRLRATPSGPDVLTFDLLSLWGKLRAGLGAAGFKAPLPEREESVKEFVTRNLGEEVFQRLIEPACSGVYAGDPAKLSMKAAFGKVYDLEKGGGSIVGGVLALMKARKQKPPEPRPADLPPKPKGQTVGSFDKGLVTLPSAIAEELGDRVVTGWKLESIDRSGDRFQLTYDTPQGRKKVSARSVALTVPAYTAASLLESRFPKLGKALSSIYYPPVASVALSYPETAILPERLGSDGHLAGFGQLHPRTQGVTTLGTIYASSLFPGRVPEGKVLLLSYFGGATNTRVATMPHGEIVSQVDKDLRKMLIRSDAESPHTVNVTVWPRAIPQFNVGHTDLIQEAKDDLASQGWQGLHLGGNYVAGVALGKCMEAGYKQAAELASHVKSLAT
modifications: Synthetic (Protoporphyrinogen IX oxidase (ApPPO1) of Auxenochlorella protothecoides)
B2: L389T + Y422M: ApPPO1 (SEQ ID NO: 1) variant (protein)
chain: B1 chain with A209F, L389T, Y422M
modifications: Synthetic (Protoporphyrinogen IX oxidase (ApPPO1) of Auxenochlorella protothecoides)
B3: V360I + Y422I: ApPPO1 (SEQ ID NO: 1) variant (protein)
chain: B1 chain with A209F, V360I, Y422I
modifications: Synthetic (Protoporphyrinogen IX oxidase (ApPPO1) of Auxenochlorella protothecoides)
B4: I402T + Y422M: ApPPO1 (SEQ ID NO: 1) variant (protein)
chain: B1 chain with A209F, I402T, Y422M
modifications: Synthetic (Protoporphyrinogen IX oxidase (ApPPO1) of Auxenochlorella protothecoides)
B5: R140A: ApPPO1 (SEQ ID NO: 1) variant (protein)
chain: B1 chain with R140A, A209F
modifications: Synthetic (Protoporphyrinogen IX oxidase (ApPPO1) of Auxenochlorella protothecoides)
B6: Y422M: ApPPO1 (SEQ ID NO: 1) variant (protein)
chain: B1 chain with A209F, Y422M
modifications: Synthetic (Protoporphyrinogen IX oxidase (ApPPO1) of Auxenochlorella protothecoides)
B7: F209A + Y422M: ApPPO1 (SEQ ID NO: 1) variant (protein)
chain: B1 chain with Y422M
modifications: Synthetic (Protoporphyrinogen IX oxidase (ApPPO1) of Auxenochlorella protothecoides)
B8: Y422T: ApPPO1 (SEQ ID NO: 1) variant (protein)
chain: B1 chain with A209F, Y422T
modifications: Synthetic (Protoporphyrinogen IX oxidase (ApPPO1) of Auxenochlorella protothecoides)
B9: S362V + Y422I: ApPPO1 (SEQ ID NO: 1) variant (protein)
chain: B1 chain with A209F, S362V, Y422I
modifications: Synthetic (Protoporphyrinogen IX oxidase (ApPPO1) of Auxenochlorella protothecoides)
B10: A215C: ApPPO1 (SEQ ID NO: 1) variant (protein)
chain: B1 chain with A209F, A215C
modifications: Synthetic (Protoporphyrinogen IX oxidase (ApPPO1) of Auxenochlorella protothecoides)
B11: Y422I: ApPPO1 (SEQ ID NO: 1) variant (protein)
chain: B1 chain with A209F, Y422I
modifications: Synthetic (Protoporphyrinogen IX oxidase (ApPPO1) of Auxenochlorella protothecoides)
B12: I402T: ApPPO1 (SEQ ID NO: 1) variant (protein)
chain: B1 chain with A209F, I402T
modifications: Synthetic (Protoporphyrinogen IX oxidase (ApPPO1) of Auxenochlorella protothecoides)
B13: F386V + Y422M: ApPPO1 (SEQ ID NO: 1) variant (protein)
chain: B1 chain with A209F, F386V, Y422M
modifications: Synthetic (Protoporphyrinogen IX oxidase (ApPPO1) of Auxenochlorella protothecoides)
B14: V360M + Y422M: ApPPO1 (SEQ ID NO: 1) variant (protein)
chain: B1 chain with A209F, V360M, Y422M
modifications: Synthetic (Protoporphyrinogen IX oxidase (ApPPO1) of Auxenochlorella protothecoides)
B15: V213C: ApPPO1 (SEQ ID NO: 1) variant (protein)
chain: B1 chain with A209F, V213C
modifications: Synthetic (Protoporphyrinogen IX oxidase (ApPPO1) of Auxenochlorella protothecoides)
B16: V360M: ApPPO1 (SEQ ID NO: 1) variant (protein)
chain: B1 chain with A209F, V360M
modifications: Synthetic (Protoporphyrinogen IX oxidase (ApPPO1) of Auxenochlorella protothecoides)
B17: L389T: ApPPO1 (SEQ ID NO: 1) variant (protein)
chain: B1 chain with A209F, L389T
modifications: Synthetic (Protoporphyrinogen IX oxidase (ApPPO1) of Auxenochlorella protothecoides)
B18: F386V: ApPPO1 (SEQ ID NO: 1) variant (protein)
chain: B1 chain with A209F, F386V
modifications: Synthetic (Protoporphyrinogen IX oxidase (ApPPO1) of Auxenochlorella protothecoides)

These molecules were tested on ApPPO1 (assay: PPO enzyme activity of purified MBP-fused ApPPO1 wild type and variants). Conditions: PPO enzyme activity relative to ApPPO1 wild type; MBP-fused protein.
Format: biochemical, Auxenochlorella protothecoides
Description: Thus, PPO proteins of wild type and variants were expressed as fused to MBP and were used for experiments.
The following process for purification of PPO protein was performed in a 4° C. cold room. […] The column was washed with 3 column volumes of buffer and the presence of protein in the washing solution was examined. When the protein was no longer detected, the washing procedure was terminated. Then, the MBP-PPO protein was eluted with approximately 2 column volumes of buffer containing 20 mM maltose. The protein concentration of each eluent was determined and the elution was stopped when the protein was no longer detected. Ten microliter of each fraction was investigated for protein quantification and SDS-PAGE analysis. The highly pure fractions of PPO protein variants were used for the enzyme assay.
Since protoporphyrinogen IX, a substrate of PPO protein, was not commercially available, it was chemically synthesized in the laboratory. Overall process was performed in dark under nitrogen stream. […] of protoporphyrin IX was dissolved in 20 ml of 20% (v/v) EtOH, and stirred under dark condition for 30 minutes. The obtained protoporphyrin IX solution was put into a 15 ml screw tube in an amount of 800 μl, and flushed with nitrogen gas for 5 minutes. To this, 1.5 g of sodium amalgam was added and vigorously shaken for 2 minutes. The lid was opened to exhaust hydrogen gas in the tube. Thereafter, the lid was closed and incubated for 3 minutes. The protoporphyrinogen IX solution was filtered using syringe and cellulose membrane filter. To 600 μl of the obtained protoporphyrinogen IX solution, approximately 300 μl of 2M MOPS [3-(N-morpholino) propanesulfonic acid] was added to adjust pH to 8.0. To determine the enzyme activity of PPO protein, a reaction mixture was prepared with the following composition (based on 10 ml): 50 mM Tris-Cl (pH 8.0); 50 mM NaCl; 0.04% (v/v) Tween 20; 40 mM glucose (0.072 g); 5 units glucose oxidase (16.6 mg); and 10 units catalase (1 μl).
Hundred and eighty microliters of a reaction mixture […] were placed in 96 well plates and 20 μl of purified PPO proteins were added. After 50 μl of the mineral oil was layered, the reaction was initiated by adding the substrate, protoporphyrinogen IX solution, to a final concentration of 50 μM. The reaction proceeded at room temperature for 30 min and the fluorescence of protoporphyrin IX was measured using Microplate reader (Sense, Hidex) (excitation: 405 nm; emission: 633 nm). To calculate the PPO enzyme activity, the protoporphyrinogen IX solution was kept open in the air overnight to oxidize the solution. To this, 2.7 N HCl was added, and the absorbance at 408 nm was measured. A standard curve was generated using standard protoporphyrin IX, and PPO activity was measured by calibration of protoporphyrin IX using the standard curve of protoporphyrin IX.
Activities of variants were presented relatively compared to that of wild type.

Molecule	Activity (%)
B1	78
B2	15
B3	16
B4	21
B5	88
B6	93
B7	51
B8	84
B9	21
B10	89
B11	91
B12	16
B13	65
B14	8
B15	85
B16	59
B17	11
B18	86
